According to patent US11994512B2, “Single-cell genomic methods to generate ex vivo cell systems that recapitulate in vivo biology with improved fidelity” (Massachusetts Institute of Technology, priority 2018, dated 2024):

Tested on: intracellular proteome of ENR+CD and ENR organoids
Test: LC-MS/MS TMT proteomics of ENR+CD versus ENR organoids
Assay type: cell-based, C57BL/6 mice
Conditions: for Average logFC: ENR+CD versus ENR organoids, sample pairs in aggregate (n=4, 2 technical replicates from two biological donors); for M1-1 Log2 Median Normalized / M1-2 Log2 Median Normalized / M2-1 Log2 Median Normalized / M2-2 Log2 Median Normalized: protein abundance ratio ENR+CD versus ENR organoids, LC-MS/MS TMT proteomics; for M1-1 Log2 Median Normalized: sample pair M1-1; for M1-2 Log2 Median Normalized: sample pair M1-2; for M2-1 Log2 Median Normalized: sample pair M2-1; for M2-2 Log2 Median Normalized: sample pair M2-2; for change: up = enriched in ENR+CD, down = enriched in ENR, FDR<0.05 and log fold change cut-off

B1: Q9DBG7 (protein, UniProt Q9DBG7 1-636, looked up)
chain: MLDFFTIFSKGGLVLWCFQGVSDSCTGPVNALIRSVLLQERGGNNSFTHEALTLKYKLDNQFELVFVVGFQKILTLTYVDKLIDDVHRLFRDKYRTEIQQQSALSLLNGTFDFQNDFLRLLREAEESSKIRAPTTMKKFEDSEKAKKPVRSMIETRGEKTKEKAKNNKKRGAKKEGSDGTLATSKTAPAEKSGLSAGPENGELSKEELIRRKREEFIQKHGKGLDKSSKSTKSDTPKEKGKKAPRVWELGGCANKEVLDYSTPTTNGTPEAALSEDINLIRGTGPGGQLQDLDCSSSDDEGATQNTKPSATKGTLGGMFGMLKGLVGSKSLSREDMESVLDKMRDHLIAKNVAADIAVQLCESVANKLEGKVMGTFSTVTSTVKQALQESLVQILQPQRRVDMLRDIMDAQRRQRPYVVTFCGVNGVGKSTNLAKISFWLLENGFSVLIAACDTFRAGAVEQLRTHTRRLTALHPPEKHGGRTMVQLFEKGYGKDAAGIAMEAIAFARNQGFDVVLVDTAGRMQDNAPLMTALAKLITVNTPDLVLFVGEALVGNEAVDQLVKFNRALADHSMAQTPRLIDGIVLTKFDTIDDKVGAAISMTYITSKPIVFVGTGQTYCDLRSLNAKAVVAALMKA
modifications: full-length
Average logFC: 1.192 | M1-1 Log2 Median Normalized: 1.346 | M1-2 Log2 Median Normalized: 1.118 | M2-1 Log2 Median Normalized: 0.9025 | M2-2 Log2 Median Normalized: 1.401 | change: up

B2: Q9DD24 (protein, UniProt Q9DD24 1-104, looked up)
chain: MKPCQKMEGNLEKEDEPKPEEEPKPEEKPEEGQEPEEEEKSEETFRERLIRSLQDFQEDIHNRHLSSDDLFRDVEELDEIRKVRNKLIVTRWKANRSHPYPYLM
modifications: full-length
Average logFC: 1.262 | M1-1 Log2 Median Normalized: 1.266 | M1-2 Log2 Median Normalized: 0.97 | M2-1 Log2 Median Normalized: 1.6605 | M2-2 Log2 Median Normalized: 1.153 | change: up

B3: Q9DCT8 (protein, UniProt Q9DCT8 1-208, looked up)
chain: MASKCPKCDKTVYFAEKVSSLGKDWHKFCLKCERCNKTLTPGGHAEHDGKPFCHKPCYATLFGPKGVNIGGAGSYIYEKPQTEAPQVTGPIEVPVVRTEERKTSGPPKGPSKASSVTTFTGEPNMCPRCNKRVYFAEKVTSLGKDWHRPCLRCERCSKTLTPGGHAEHDGQPYCHKPCYGILFGPKGVNTGAVGSYIYDKDPEGTVQP
modifications: full-length
Average logFC: 1.386 | M1-1 Log2 Median Normalized: 1.983 | M1-2 Log2 Median Normalized: 1.517 | M2-1 Log2 Median Normalized: 0.9975 | M2-2 Log2 Median Normalized: 1.047 | change: up

B4: Q9ERH4 (protein, UniProt Q9ERH4 1-427, looked up)
chain: MTVPSAEELDSFKYSDLQNLAKRLGLRANMKADKLLKALKAHLNPETRKENKNQDENQFSTDETEIHVSSEEQAETESGGHVTKTRRRRRKKHKTIHGIPTSQTLLQDHLEMKGTDSSNFQNQENQENQDPRDTAEVPSLPEQRPEDGNAASSGEGEVNDIKDSKKPLEKRSLCTDEFSKLGNNKRTSATTPNFKKLHEARFKKMESIDEYIMRKKKHLKEHSSLNELKLDKKGIVTPVPPRGRLSVPCTPARQQCPQGHSATKMNVRFSAATKDNEHKCSLTKTPARKSPHVTAPGSASKGQAVFRTPKSKATERTSIAVITPFKLMTEATQTPSSSKKPVFDLKASLSRPLNYKPHKGKLKPWGQAKENNSLNERVSRVTFHRKTYKQPHLQTREERWKRQEQERKEKKEKLLEARRNLGVTKAQ
modifications: full-length
Average logFC: −1.264 | M1-1 Log2 Median Normalized: −1.354 | M1-2 Log2 Median Normalized: −0.911 | M2-1 Log2 Median Normalized: −1.2565 | M2-2 Log2 Median Normalized: −1.536 | change: down

B5: Q9JIB0 (protein, UniProt Q9JIB0 1-185, looked up)
chain: MEPNRNCPLFGGAFSAILPTGAIDVSDLRPVPDNQEVFCHPVTDQSLIIELLELQAHVQGEAAARYHFEDVGRVQGARAVHVLSVQPLCLENLSLRGCCQDAWSLSGKQQVAKENQQVAKDVTLHQALLRLPQYQTDLLLTFNQPPCHSRSLGPENLSCPPWSLSNFEQLVTSLTLHDPNLFGPQ
modifications: full-length
Average logFC: −1.426 | M1-1 Log2 Median Normalized: −1.2 | M1-2 Log2 Median Normalized: −1.555 | M2-1 Log2 Median Normalized: −1.6355 | M2-2 Log2 Median Normalized: −1.315 | change: down

B6: Q9ERZ0 (protein, UniProt Q9ERZ0 1-503, looked up)
chain: MDMGKGRPRLKLPQMPEAHPQKSCAPDIIGSWSLRNREQLRKRKAEAQGRQTSQWLLGEQKKRKYQRTGKGNKRGRKRQGNVEQKAEPWSQTERERVQEVLVSAEEETEHPGNSATEALPLVPSPTKAVPADQCSEAHQESIQCQERAIQNHSQTHLSPTTCQGIAVLQHSPKMCQDMAEPEVFSPNMCQETAVPQTYPPKALEEMAAAEPLSPKMCQETTVSPNHSSKVPQDMAGPEALSPNMCQEPTVPQEHTLKMCHDVARPEVLSPKTHQEMAVPKAFPCVTPGDAAGLEGCAPKALPQSDVAEGCPLDTTPTSVTPEQTTSDPDLGMAVTEGFFSEARECTVSEGVSTKTHQEAVEPEFISHETYKEFTVPIVSSQKTIQESPEPEQYSPETCQPIPGPENYSLETCHEMSGPEDLSIKTCQDREEPKHSLPEGAQKVGGAQGQDADAQDSENAGAFSQDFTEMEEENKADQDPEAPASPQGSQETCPENGIYSSALF
modifications: full-length
Average logFC: −1.361 | M1-1 Log2 Median Normalized: −1.833 | M1-2 Log2 Median Normalized: −1.41 | M2-1 Log2 Median Normalized: −1.0155 | M2-2 Log2 Median Normalized: −1.185 | change: down

B7: Q9JHT5 (protein, UniProt Q9JHT5 1-344, looked up)
chain: MAAGCCGVKKQKLSSSPPSGSGGGGGASSSSHCSGESQCRAGELGLGGAGTRLNGLGGLSGGGGSGGGGGCPLSPPQGCGGGGGGGGGGGSGSGGGGISLSPPLSCGVGTLLSTPAAATASSPSSSSSSPGSRKMVVSAEMCCFCFDVLYCHLYGYQQPRTPRFTNEPYPLFVTWKIGRDKRLRGCIGTFSAMNLHSGLREYTLTSALKDSRFPPMTRDELPRLFCSVSLLTNFEDVCDYLDWEVGVHGIRIEFINEKGSKRTATYLPEVAKEQGWDHIQTIDSLLRKGGYKAPITNEFRKTIKLTRYRSEKMTLSYAEYLAHRQHHHFQNGIGHPLPPYNHYS
modifications: full-length
Average logFC: 1.464 | M1-1 Log2 Median Normalized: 1.463 | M1-2 Log2 Median Normalized: 1.751 | M2-1 Log2 Median Normalized: 1.5015 | M2-2 Log2 Median Normalized: 0.056 | change: up

B8: Q9D8W7 (protein, UniProt Q9D8W7 1-154, looked up)
chain: MASVSTHGNQEKSPHLPPLSKQSLLFCPKSKLHIHRGEIAKIIRECQEESFWKRALPFSLISMLVTQGLVHQGYLAANPRFGSLPKVALAGLLGFGLGKASYIRVCQSKFHSFEDQLRGAGFGPEHNRHCLLTCEDCKTRRGLSEKAGSQPSAS
modifications: full-length
Average logFC: −1.397 | M1-1 Log2 Median Normalized: −0.573 | M1-2 Log2 Median Normalized: −1.182 | M2-1 Log2 Median Normalized: −1.9045 | M2-2 Log2 Median Normalized: −1.927 | change: down

B9: Q9JJ78 (protein, UniProt Q9JJ78 1-330, looked up)
chain: MEGINNFKTPNKSEKRKSVLCSTPCVNIPASPFMQKLGFGTGVSVYLMKRSPRGLSHSPWAVKKISLLCDDHYRTVYQKRLTDEAKILKNLNHPNIIGYRAFTEASDGSLCLAMEYGGEKSLNDLIEERNKDSGSPFPAAVILRVALHMARGLKYLHQEKKLLHGDIKSSNVVIKGDFETIKICDVGVSLPLDENMTVTDPEACYIGTEPWKPKEALEENGIITDKADVFAFGLTLWEMMTLCIPHVNLPDDDVDEDATFDESDFDDEAYYAALGTRPSINMEELDDSYQKAIELFCVCTNEDPKDRPSAAHIVEALELDGQCCGLSSKH
modifications: full-length
Average logFC: −1.167 | M1-1 Log2 Median Normalized: −1.497 | M1-2 Log2 Median Normalized: −0.959 | M2-1 Log2 Median Normalized: −0.7695 | M2-2 Log2 Median Normalized: −1.442 | change: down

B10: Q9EPC5 (protein, UniProt Q9EPC5 1-134, looked up)
chain: MPADLSGTWNLLSSDNFEGYMLALGIDFATRKIAKLLKPQKVIEQNGDSFTIQTCSSLRNYLVKFKVGEEFEEDNKGLDNRKCTSLVTWENDKLTCVQRGEKKNRGWSHWIEGDQLHLEMFCEGQVCKQTFQRA
modifications: full-length
Average logFC: −2.14 | M1-1 Log2 Median Normalized: −2.063 | M1-2 Log2 Median Normalized: −2.064 | M2-1 Log2 Median Normalized: −2.2365 | M2-2 Log2 Median Normalized: −2.196 | change: down

B11: Q9D9Z1 (protein, UniProt Q9D9Z1 1-312, looked up)
chain: MAAPEAEAQETAFRTTGPPTDSEPRPFPPSSRKFPFESAAADSNEDWAVAAEHYLKGSGENGGWEQPAPGVQPSHPATMASAKTVCDAQPHSMPSCGLPADTQTRATSKLPVKSKEADLLRHLHPGGPEPDVTKVTKSRRENGQVKAAETASRRNLRNSYKPFNKQKPEEELKDKNELLEAVNKQLHQKLTETQGELKDLTQKVELLEKFQDNCLALLESKGLNPGQETLASKQEPTTDHTDSMLLLETLKDELKVFNETAKKQMEELQALKVKLKLKEEESVQFLEQQTLCKDEASDFTIILEEMEQLLEM
modifications: full-length
Average logFC: −1.13 | M1-1 Log2 Median Normalized: −1.473 | M1-2 Log2 Median Normalized: −0.579 | M2-1 Log2 Median Normalized: −0.8635 | M2-2 Log2 Median Normalized: −1.605 | change: down

B12: Q9DA97 (protein, UniProt Q9DA97 1-430, looked up)
chain: MAEKPTNTSVPIPGSEDPQKENIRCLSTLGHFGFECLPTQLVNKSIQKGFSFNILCVGETGIGKTTLINTLFNTNLKETKSSHFYSKVGLTVKTYELLERNIPLRLTVVKTVGYGDQINKEASYQPVVDYLDAQFEAYLQEELKIKRSLADYHDSRIHVCLYFITPTGHSLKSLDLLTMKSIDRRVNIIPLIAKADSLSKNDLQRFKNNIMSELNSNGIQIYQFQVDDEASAQVNSSGLLPFAVVGSMEEVKVGKRMVRGRHYPWGVLQEVENENHCDFVKLRDLLLSTNMEDLKDQTHTQHYECYRSNRLQKLGFSDTGPDNRPVSFQEMYEAKRREFHNQCQKEEEELKQTFMQRVKEKELTFKDAEKELQDKFEHLKRIQQEEILKLEEERRKLEEQIIDFYKMKAASESAQAQVCTNIKKDKDRKK
modifications: full-length
Average logFC: −1.147 | M1-1 Log2 Median Normalized: −0.99 | M1-2 Log2 Median Normalized: −1.148 | M2-1 Log2 Median Normalized: −0.7465 | M2-2 Log2 Median Normalized: −2.635 | change: down
